Changes are numbered by the printed parent chain.
B1: LC7HC5 (antibody, V domains shown)
VH: QVQLQESGAEVKKPGASVKVSCKASGYTFSSYWIEWVRQAPGQGLEWMGEILPGSASTKYNEKFKGRVTMTADTSTNTVYMELSSLRSEDTAVYYCARDYYYGSSYGFAYWGQGTLVTVSS
VL: QAVVTQEPSLTVSPGGTVTLTCRSSTGAVTTSNYANWVQQKPGQLPKGLISGTNNRGPWTTARFSGSILGDKAVLTLWGAHTEDEAVYYCALWYSNHWVFGGGTKLTVLG
notes: Humanized B278 variant, expressed transiently in CHO cells; also called B278-LC7HC5; B278-LC7HC5 variant
B2: LC8HC5 (antibody, V domains shown)
VH: B1 VH
VL: QSALIQPPSVSGSPGQSVTISCRSSTGAVTTSNYANWVQQHPGTVPKPMIYGTNNRGPGVPDRFSGSKSGNTASMTISGLQAEDEADYFCALWYSNHWVFGGGTKLTVLG
notes: Humanized B278 variant, expressed transiently in CHO cells; also called B278-LC8HC5; B278-LC8HC5 variant
B3: LC8HC6 (antibody, V domains shown)
VH: B1 VH with Q1E, E6Q, K12M, V20I, R38K, M48I, M70F, V79A
VL: B2 VL
notes: Humanized B278 variant, expressed transiently in CHO cells; also called B278-LC8HC6; B278-LC8HC6 variant
B4: LC7HC4 (antibody, V domains shown)
VH: B1 VH with A72R, N77S
VL: B1 VL
notes: Humanized B278 variant, expressed transiently in CHO cells; also called B278-LC7HC4; B278-LC7HC4 variant
B5: LC8HC4 (antibody, V domains shown)
VH: B1 VH with A72R, N77S
VL: B2 VL
notes: Humanized B278 variant, expressed transiently in CHO cells; also called B278-LC8HC4; B278-LC8HC4 variant
B6: chimeric antibody B278-LC0HC0 (antibody, V domains shown)
VH: EVQLQQSGAELMKPGASVKISCKATGYTFSSYWIEWVKQRPGHGLEWIGEILPGSASTKYNEKFKGKATFTADTSSNTAYMQLSSLTSEDSAVYYCARDYYYGSSYGFAYWGQGTLVTVSS
VL: QAVVTQESALTTSPGETVTLTCRSSTGAVTTSNYANWVQEKPDHLFTGLIGGTNNRGPGVPARFSGSLIGDKAALTITGAQTEDEAVYFCALWYSNHWVFGGGTKLTVLG
notes: also called Ab LC0HC0 (chimeric B278); chimeric B278 control antibody
B7: humanized tissue factor antibody B278-LC7HC6 variant (antibody, human IgG1, lambda, V domains shown)
VH: B1 VH with Q1E, E6Q, K12M, V20I, R38K, M48I, M70F, V79A
VL: B1 VL
notes: Full-length humanized antibody; Expressed transiently in CHO cells; also called Ab LC7HC6; PS-F09-2016-012

What was measured:
[1] = target: T1, Recombinant Human Coagulation Factor III (tissue factor), R&D Systems (human, UniProt P13726 33-251); experiment: ELISA: 100 ng/well Recombinant Human Coagulation Factor III coated on plate, antibody titrated 1000 to 0.97 ng/ml, goat anti-human Fc-HRP, TMB, OD at 450 nm
T1 construct: Bought reagent
Experimental: The binding of humanized variants of TF antibody B278, including B278-LC7HC4, LC7HC5, LC7HC6, LC8HC4, LC8HC5, and LC8HC6 variants, to recombinant human coagulation factor III (tissue factor) was assessed by ELISA analysis. The chimeric antibody B278-LC0HC0 was used as a control. In brief, 100 ng/well of Recombinant Human Coagulation Factor III (R&D Systems, UK) was immobilized onto 96 well Maxisorp plates in coating buffer (0.5 mM NaHCO₃ brought to pH 9.5 by the addition of 0.5 mM Na₂CO₃) overnight at 4° C. Coating buffer was removed and the plates were washed once in PBS Tween (PBS-T) (0.05% (v/v) Tween 20). 200 μl per well of 3.0% (w/v) semi skim milk in PBS was added and the plates were agitated for 2 hours at room temperature. Plates were washed three times with PBS-T.
Purified humanized variants of the TF antibody B278 (LC7HC4; LC7HC5; LC7HC6; LC8HC4; LC8HC5; LC8HC6) were serially diluted from 1,000 ng/ml to 0.97 ng/ml in incubation buffer (PBS, 1% (w/v) BSA), and 100 μl added per well.
Following agitation for two hours at room temperature, the plate was washed three times with PBS-T. 100 μl/well of goat anti-human HRP (Fc specific) (Sigma, UK) (1:60,000 PBS) was added and plates incubated for one hour with agitation at room temperature. The plates were washed three times with PBS-T and once in PBS. 100 μl/well of 3,3′,5,5′-Tetramethylbenzidine (TMB) substrate solution was added and incubated at 37° C. for 10 minutes. 50 μl of 1M HCl were added per well and the plates immediately read at 450 nm on a Tecan Sunrise plate reader.

[2] = target: T2, recombinant soluble human tissue factor (hTF) (human, UniProt P13726 33-251); experiment: SPR (Biacore X), soluble hTF immobilized on CM5 chip, antibody injected; global fit Langmuir 1:1
T2 construct: also called soluble hTF
Experimental: Binding properties of anti-hTF MAbs were evaluated using a Biacore X (Biacore Inc., Uppsala, Sweden). Briefly, a CM5 Biacore biosensor chip was docked into the instrument and activated with 55 μL of 1:1 NHS/EDC reagent (Biacore Inc.) at room temperature. The recombinant soluble hTF and BSA (10 μg/mL in 0.05 M acetate buffer, pH 4.5) were immobilized on the activated chip in flow cells 1 and 2, respectively. Immobilization was carried out at a flow rate of 5 μL/min until a resonance response of 1000-2000 RU was achieved. The chip was then blocked by injection of 55 μL of ethanolamine-HCl, pH 8.5, followed by five washes with 50 mM NaOH, 1 M NaCl.
To measure the binding of anti-hTF MAbs to the soluble hTF immobilized to the chip, 30 μL of anti-hTF MAbs at varying concentrations in Biacore running buffer (HBS-EP, Biacore Inc.) were injected over the sensor surface at a flow rate of 5 μL/min. Following completion of the injection phase, dissociation was monitored in BIAcore running buffer at the same flow rate for 360 sec. The surface was regenerated between injections using 30 μL of 50 mM NaOH-1 M NaCl. Individual sensorgrams were analyzed using […] software. Results for the Biacore/SPR binding analyses are shown in FIGS. 11A and 11B and Table 7.

| Binder | EC50 (read off the curve) [1] | binding result [1] | also measured |
| --- | --- | --- | --- |
| B1 | ~0.05 µg/mL |  |  |
| B2 |  | no binding (tested: 1000 ng/ml) |  |
| B3 |  | no binding (tested: 1000 ng/ml) |  |
| B4 | ~0.06 µg/mL |  |  |
| B5 |  | no binding (tested: 1000 ng/ml) |  |
| B6 | ~0.04 µg/mL |  | Kd [2]: 24.9 nM; koff [2]: 0.0011 s⁻¹; kon [2]: 43000 M⁻¹ s⁻¹ |
| B7 |  |  | Kd [2]: 25.3 nM; koff [2]: 0.0007 s⁻¹; kon [2]: 28000 M⁻¹ s⁻¹ |
